Measurements from doi:10.1101/2021.01.06.425618.

What was measured:
[1] = target: venus-PreIQ3-IQ-A1.3 F[-2]A (rat); assay: FRET or BRET
[2] = target: venus-PreIQ3-IQ-A1.3 (wild type) (rat) (UniProt P27732); assay: FRET or BRET
Sequence of UniProt P27732 (P27732 whole entry): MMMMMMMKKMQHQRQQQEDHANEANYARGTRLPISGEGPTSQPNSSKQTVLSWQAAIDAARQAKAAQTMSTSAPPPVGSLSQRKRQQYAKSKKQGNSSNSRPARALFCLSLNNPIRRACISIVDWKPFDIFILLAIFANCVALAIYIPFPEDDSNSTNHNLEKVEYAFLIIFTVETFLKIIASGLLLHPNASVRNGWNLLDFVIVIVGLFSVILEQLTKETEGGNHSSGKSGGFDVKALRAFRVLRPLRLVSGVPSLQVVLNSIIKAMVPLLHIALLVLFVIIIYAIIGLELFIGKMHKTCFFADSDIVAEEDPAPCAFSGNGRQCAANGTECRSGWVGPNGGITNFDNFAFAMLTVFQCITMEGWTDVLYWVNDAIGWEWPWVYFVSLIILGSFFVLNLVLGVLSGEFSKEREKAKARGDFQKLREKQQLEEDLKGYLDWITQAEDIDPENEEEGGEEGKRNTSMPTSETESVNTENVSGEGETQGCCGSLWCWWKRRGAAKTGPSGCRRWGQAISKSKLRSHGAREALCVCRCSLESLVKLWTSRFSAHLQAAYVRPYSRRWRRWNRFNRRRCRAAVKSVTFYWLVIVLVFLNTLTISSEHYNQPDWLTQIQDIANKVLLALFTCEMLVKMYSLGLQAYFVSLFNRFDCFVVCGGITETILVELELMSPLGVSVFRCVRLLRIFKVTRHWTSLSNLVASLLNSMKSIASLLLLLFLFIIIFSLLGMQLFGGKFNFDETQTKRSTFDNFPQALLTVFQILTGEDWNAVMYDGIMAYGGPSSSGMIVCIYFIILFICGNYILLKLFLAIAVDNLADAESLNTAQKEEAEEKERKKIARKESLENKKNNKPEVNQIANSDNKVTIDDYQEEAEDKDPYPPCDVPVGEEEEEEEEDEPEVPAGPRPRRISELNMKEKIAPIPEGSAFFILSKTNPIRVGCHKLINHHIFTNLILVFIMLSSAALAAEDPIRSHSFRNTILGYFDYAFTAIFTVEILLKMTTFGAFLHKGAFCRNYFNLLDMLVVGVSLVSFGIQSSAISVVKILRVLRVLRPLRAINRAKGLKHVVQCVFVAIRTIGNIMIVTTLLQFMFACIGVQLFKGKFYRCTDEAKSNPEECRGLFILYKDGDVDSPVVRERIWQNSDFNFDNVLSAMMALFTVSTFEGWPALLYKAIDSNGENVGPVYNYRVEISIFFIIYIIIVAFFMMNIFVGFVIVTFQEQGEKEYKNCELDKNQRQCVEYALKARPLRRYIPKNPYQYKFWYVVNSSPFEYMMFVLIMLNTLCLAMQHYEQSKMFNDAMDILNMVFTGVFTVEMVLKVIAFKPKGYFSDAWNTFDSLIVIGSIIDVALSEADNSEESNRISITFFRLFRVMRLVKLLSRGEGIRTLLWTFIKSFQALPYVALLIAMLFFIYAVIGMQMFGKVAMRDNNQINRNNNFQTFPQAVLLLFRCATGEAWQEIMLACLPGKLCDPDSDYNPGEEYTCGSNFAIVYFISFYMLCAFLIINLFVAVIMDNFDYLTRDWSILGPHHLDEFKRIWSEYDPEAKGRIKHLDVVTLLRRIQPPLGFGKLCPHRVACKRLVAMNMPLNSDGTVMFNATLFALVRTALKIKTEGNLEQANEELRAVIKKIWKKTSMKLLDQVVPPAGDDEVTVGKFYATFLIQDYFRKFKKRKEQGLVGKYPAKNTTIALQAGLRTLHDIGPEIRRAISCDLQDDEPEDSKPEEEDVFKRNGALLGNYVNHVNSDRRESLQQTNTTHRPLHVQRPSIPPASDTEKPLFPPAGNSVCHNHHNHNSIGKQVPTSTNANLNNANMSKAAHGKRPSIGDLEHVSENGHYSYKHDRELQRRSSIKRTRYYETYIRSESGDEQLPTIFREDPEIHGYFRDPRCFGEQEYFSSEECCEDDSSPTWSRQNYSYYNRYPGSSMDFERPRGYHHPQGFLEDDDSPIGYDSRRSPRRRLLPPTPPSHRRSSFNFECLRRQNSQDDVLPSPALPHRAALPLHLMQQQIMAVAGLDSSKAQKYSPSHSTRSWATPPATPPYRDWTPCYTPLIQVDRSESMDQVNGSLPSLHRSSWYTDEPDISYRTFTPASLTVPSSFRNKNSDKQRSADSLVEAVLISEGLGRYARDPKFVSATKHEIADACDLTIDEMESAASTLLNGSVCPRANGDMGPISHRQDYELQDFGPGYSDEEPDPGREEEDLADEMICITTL

- Ka [1]: 5.8e+06 M⁻¹
- Ka [2]: 2.14e+07 M⁻¹
Substance: Cerulean-ICDI1.4 (wild type) (from UniProt O60840 1-1977) (domain or fragment)
